According to the supplement of paper PMC11908140:

B1: library; numbered along this chain (parent)
chain: MRKPRAAVGSGHRKQAASQEGRQKHAKNNSQAKPSACDGLARQPEEVVLQASVSSYHLFRDVAEVTAFRGSLLSWYDQEKRDLPWRRRAEDEMDLDRRAYAVWVSEVMLQQTQVATVINYYTGWMQKWPTLQDLASASLEEVNQLWAGLGYYSRGRRLQEGARKVVEELGGHMPRTAETLQQLLPGVGRYTAGAIASIAFGQATGVVDGNVARVLCRVRAIGADPSSTLVSQQLWGLAQQLVDPARPGDFNQAAMELGATVCTPQRPLCSQCPVESLCRARQRVEQEQLLASGSLSGSPDVEECAPNTGQCHLCLPPSEPWDQTLGVVNFPRKASRKPPREESSATCVLEQPGALGAQILLVQRPNSGLLAGLWEFPSVTWEPSEQLQRKALLQELQRWAGPLPATHLRHLGEVVHTFSHIKLTYQVYGLALEGQTPVTTVPPGARWLTQEEFHTAAVSTAMKKVFRVYQGQQPGTCMGSKRSQVSSPCSRKKPRMGQQVLDNFFRSHISTDAHSLNSAAQ

Variants of: B1
Assay: 8OG:A repair function score (normalized; synonymous = 0, nonsense = -1) (normalized log-likelihood score); higher = more repair activity (WT-like)
Details: with 8OG:A DNA repair reporter (GFP) in HEK-293 MUTYH KO cells
Method in brief: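 Lentiviral MUTYH cDNA NNN codon-scan libraries were expressed in MUTYH knockout HEK-293 cells with 10 pg/ml doxycycline, and the cells received an 8OG:A GFP repair reporter together with mCherry. At 72 h, viable mCherry+ cells went into GFP+ (repair) or GFP− bins, three replicates per tile, before tile amplicons were sequenced. A repair function score was then built from per-tile Rosace fitness scores, anchored on the synonymous and nonsense distributions. Synonymous medians sat at 0 and nonsense at -1, and variants under 300 counts per million at the start were left out.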
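Also: cells sorted at 72 h after reporter transfection.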

Variant | 8OG:A repair function score
MRKPRAAVGSGHRKQAASQEGRQKHAKNNSQAKPSACDGLARQPEEVVLQASVSSYHLFRDVAEVTAFRGSLLSWYDQEKRDLPWRRRAEDEMDLDRRAYAVWVSEVMLQQTQVATVINYYTGWMQKWPTLQDLASASLEEVNQLWAGLGYYSRGRRLQEGARKVVEELGGHMPRTAETLQQLLPGVGRYTAGAIASIAFGQATGVVDGNVARVLCRVRAIGADPSSTLVSQQLWGLAQQLVDPARPGDFNQAAMELGATVCTPQRPLCSQCPVESLCRARQRVEQEQLLASGSLSGSPDVEECAPNTGQCHLCLPPSEPWDQTLGVVNFPRKASRKPPREESSATCVLEQPGALGAQILLVQRPNSGLLAGLWEFPSVTWEPSEQLQRKALLQELQRWAGPLPATHLRHLGEVVHTFSHIKLTYQVYGLALEGQTPVTTVPPGARWATQEEFHTAAVSTAMKKVFRVYQGQQPGTCMGSKRSQVSSPCSRKKPRMGQQVLDNFFRSHISTDAHSLNSAAQ [L448A] | -0.105
MRKPRAAVGSGHRKQAASQEGRQKHAKNNSQAKPSACDGLARQPEEVVLQASVSSYHLFRDVAEVTAFRGSLLSWYDQEKRDLPWRRRAEDEMDLDRRAYAVWVSEVMLQQTQVATVINYYTGWMQKWPTLQDLASASLEEVNQLWAGLGYYSRGRRLQEGARKVVEELGGHMPRTAETLQQLLPGVGRYTAGAIASIAFGQATGVVDGNVARVLCRVRAIGADPSSTLVSQQLWGLAQQLVDPARPGDFNQAAMELGATVCTPQRPLCSQCPVESLCRARQRVEQEQLLASGSLSGSPDVEECAPNTGQCHLCLPPSEPWDQTLGVVNFPRKASRKPPREESSATCVLEQPGALGAQILLVQRPNSGLLAGLWEFPSVTWEPSEQLQRKALLQELQRWAGPLPATHLRHLGEVVHTFSHIKLTYQVYGLALEGQTPVTTVPPGARWHTQEEFHTAAVSTAMKKVFRVYQGQQPGTCMGSKRSQVSSPCSRKKPRMGQQVLDNFFRSHISTDAHSLNSAAQ [L448H] | -0.0456
MRKPRAAVGSGHRKQAASQEGRQKHAKNNSQAKPSACDGLARQPEEVVLQASVSSYHLFRDVAEVTAFRGSLLSWYDQEKRDLPWRRRAEDEMDLDRRAYAVWVSEVMLQQTQVATVINYYTGWMQKWPTLQDLASASLEEVNQLWAGLGYYSRGRRLQEGARKVVEELGGHMPRTAETLQQLLPGVGRYTAGAIASIAFGQATGVVDGNVARVLCRVRAIGADPSSTLVSQQLWGLAQQLVDPARPGDFNQAAMELGATVCTPQRPLCSQCPVESLCRARQRVEQEQLLASGSLSGSPDVEECAPNTGQCHLCLPPSEPWDQTLGVVNFPRKASRKPPREESSATCVLEQPGALGAQILLVQRPNSGLLAGLWEFPSVTWEPSEQLQRKALLQELQRWAGPLPATHLRHLGEVVHTFSHIKLTYQVYGLALEGQTPVTTVPPGARWETQEEFHTAAVSTAMKKVFRVYQGQQPGTCMGSKRSQVSSPCSRKKPRMGQQVLDNFFRSHISTDAHSLNSAAQ [L448E] | -0.411
MRKPRAAVGSGHRKQAASQEGRQKHAKNNSQAKPSACDGLARQPEEVVLQASVSSYHLFRDVAEVTAFRGSLLSWYDQEKRDLPWRRRAEDEMDLDRRAYAVWVSEVMLQQTQVATVINYYTGWMQKWPTLQDLASASLEEVNQLWAGLGYYSRGRRLQEGARKVVEELGGHMPRTAETLQQLLPGVGRYTAGAIASIAFGQATGVVDGNVARVLCRVRAIGADPSSTLVSQQLWGLAQQLVDPARPGDFNQAAMELGATVCTPQRPLCSQCPVESLCRARQRVEQEQLLASGSLSGSPDVEECAPNTGQCHLCLPPSEPWDQTLGVVNFPRKASRKPPREESSATCVLEQPGALGAQILLVQRPNSGLLAGLWEFPSVTWEPSEQLQRKALLQELQRWAGPLPATHLRHLGEVVHTFSHIKLTYQVYGLALEGQTPVTTVPPGARWCTQEEFHTAAVSTAMKKVFRVYQGQQPGTCMGSKRSQVSSPCSRKKPRMGQQVLDNFFRSHISTDAHSLNSAAQ [L448C] | -0.0248
MRKPRAAVGSGHRKQAASQEGRQKHAKNNSQAKPSACDGLARQPEEVVLQASVSSYHLFRDVAEVTAFRGSLLSWYDQEKRDLPWRRRAEDEMDLDRRAYAVWVSEVMLQQTQVATVINYYTGWMQKWPTLQDLASASLEEVNQLWAGLGYYSRGRRLQEGARKVVEELGGHMPRTAETLQQLLPGVGRYTAGAIASIAFGQATGVVDGNVARVLCRVRAIGADPSSTLVSQQLWGLAQQLVDPARPGDFNQAAMELGATVCTPQRPLCSQCPVESLCRARQRVEQEQLLASGSLSGSPDVEECAPNTGQCHLCLPPSEPWDQTLGVVNFPRKASRKPPREESSATCVLEQPGALGAQILLVQRPNSGLLAGLWEFPSVTWEPSEQLQRKALLQELQRWAGPLPATHLRHLGEVVHTFSHIKLTYQVYGLALEGQTPVTTVPPGARWGTQEEFHTAAVSTAMKKVFRVYQGQQPGTCMGSKRSQVSSPCSRKKPRMGQQVLDNFFRSHISTDAHSLNSAAQ [L448G] | -0.516
MRKPRAAVGSGHRKQAASQEGRQKHAKNNSQAKPSACDGLARQPEEVVLQASVSSYHLFRDVAEVTAFRGSLLSWYDQEKRDLPWRRRAEDEMDLDRRAYAVWVSEVMLQQTQVATVINYYTGWMQKWPTLQDLASASLEEVNQLWAGLGYYSRGRRLQEGARKVVEELGGHMPRTAETLQQLLPGVGRYTAGAIASIAFGQATGVVDGNVARVLCRVRAIGADPSSTLVSQQLWGLAQQLVDPARPGDFNQAAMELGATVCTPQRPLCSQCPVESLCRARQRVEQEQLLASGSLSGSPDVEECAPNTGQCHLCLPPSEPWDQTLGVVNFPRKASRKPPREESSATCVLEQPGALGAQILLVQRPNSGLLAGLWEFPSVTWEPSEQLQRKALLQELQRWAGPLPATHLRHLGEVVHTFSHIKLTYQVYGLALEGQTPVTTVPPGARWITQEEFHTAAVSTAMKKVFRVYQGQQPGTCMGSKRSQVSSPCSRKKPRMGQQVLDNFFRSHISTDAHSLNSAAQ [L448I] | -0.0362
MRKPRAAVGSGHRKQAASQEGRQKHAKNNSQAKPSACDGLARQPEEVVLQASVSSYHLFRDVAEVTAFRGSLLSWYDQEKRDLPWRRRAEDEMDLDRRAYAVWVSEVMLQQTQVATVINYYTGWMQKWPTLQDLASASLEEVNQLWAGLGYYSRGRRLQEGARKVVEELGGHMPRTAETLQQLLPGVGRYTAGAIASIAFGQATGVVDGNVARVLCRVRAIGADPSSTLVSQQLWGLAQQLVDPARPGDFNQAAMELGATVCTPQRPLCSQCPVESLCRARQRVEQEQLLASGSLSGSPDVEECAPNTGQCHLCLPPSEPWDQTLGVVNFPRKASRKPPREESSATCVLEQPGALGAQILLVQRPNSGLLAGLWEFPSVTWEPSEQLQRKALLQELQRWAGPLPATHLRHLGEVVHTFSHIKLTYQVYGLALEGQTPVTTVPPGARWDTQEEFHTAAVSTAMKKVFRVYQGQQPGTCMGSKRSQVSSPCSRKKPRMGQQVLDNFFRSHISTDAHSLNSAAQ [L448D] | -0.727
MRKPRAAVGSGHRKQAASQEGRQKHAKNNSQAKPSACDGLARQPEEVVLQASVSSYHLFRDVAEVTAFRGSLLSWYDQEKRDLPWRRRAEDEMDLDRRAYAVWVSEVMLQQTQVATVINYYTGWMQKWPTLQDLASASLEEVNQLWAGLGYYSRGRRLQEGARKVVEELGGHMPRTAETLQQLLPGVGRYTAGAIASIAFGQATGVVDGNVARVLCRVRAIGADPSSTLVSQQLWGLAQQLVDPARPGDFNQAAMELGATVCTPQRPLCSQCPVESLCRARQRVEQEQLLASGSLSGSPDVEECAPNTGQCHLCLPPSEPWDQTLGVVNFPRKASRKPPREESSATCVLEQPGALGAQILLVQRPNSGLLAGLWEFPSVTWEPSEQLQRKALLQELQRWAGPLPATHLRHLGEVVHTFSHIKLTYQVYGLALEGQTPVTTVPPGARWFTQEEFHTAAVSTAMKKVFRVYQGQQPGTCMGSKRSQVSSPCSRKKPRMGQQVLDNFFRSHISTDAHSLNSAAQ [L448F] | -0.205
MRKPRAAVGSGHRKQAASQEGRQKHAKNNSQAKPSACDGLARQPEEVVLQASVSSYHLFRDVAEVTAFRGSLLSWYDQEKRDLPWRRRAEDEMDLDRRAYAVWVSEVMLQQTQVATVINYYTGWMQKWPTLQDLASASLEEVNQLWAGLGYYSRGRRLQEGARKVVEELGGHMPRTAETLQQLLPGVGRYTAGAIASIAFGQATGVVDGNVARVLCRVRAIGADPSSTLVSQQLWGLAQQLVDPARPGDFNQAAMELGATVCTPQRPLCSQCPVESLCRARQRVEQEQLLASGSLSGSPDVEECAPNTGQCHLCLPPSEPWDQTLGVVNFPRKASRKPPREESSATCVLEQPGALGAQILLVQRPNSGLLAGLWEFPSVTWEPSEQLQRKALLQELQRWAGPLPATHLRHLGEVVHTFSHIKLTYQVYGLALEGQTPVTTVPPGARYLTQEEFHTAAVSTAMKKVFRVYQGQQPGTCMGSKRSQVSSPCSRKKPRMGQQVLDNFFRSHISTDAHSLNSAAQ [W447Y] | -0.455
MRKPRAAVGSGHRKQAASQEGRQKHAKNNSQAKPSACDGLARQPEEVVLQASVSSYHLFRDVAEVTAFRGSLLSWYDQEKRDLPWRRRAEDEMDLDRRAYAVWVSEVMLQQTQVATVINYYTGWMQKWPTLQDLASASLEEVNQLWAGLGYYSRGRRLQEGARKVVEELGGHMPRTAETLQQLLPGVGRYTAGAIASIAFGQATGVVDGNVARVLCRVRAIGADPSSTLVSQQLWGLAQQLVDPARPGDFNQAAMELGATVCTPQRPLCSQCPVESLCRARQRVEQEQLLASGSLSGSPDVEECAPNTGQCHLCLPPSEPWDQTLGVVNFPRKASRKPPREESSATCVLEQPGALGAQILLVQRPNSGLLAGLWEFPSVTWEPSEQLQRKALLQELQRWAGPLPATHLRHLGEVVHTFSHIKLTYQVYGLALEGQTPVTTVPPGARSLTQEEFHTAAVSTAMKKVFRVYQGQQPGTCMGSKRSQVSSPCSRKKPRMGQQVLDNFFRSHISTDAHSLNSAAQ [W447S] | -1.01
MRKPRAAVGSGHRKQAASQEGRQKHAKNNSQAKPSACDGLARQPEEVVLQASVSSYHLFRDVAEVTAFRGSLLSWYDQEKRDLPWRRRAEDEMDLDRRAYAVWVSEVMLQQTQVATVINYYTGWMQKWPTLQDLASASLEEVNQLWAGLGYYSRGRRLQEGARKVVEELGGHMPRTAETLQQLLPGVGRYTAGAIASIAFGQATGVVDGNVARVLCRVRAIGADPSSTLVSQQLWGLAQQLVDPARPGDFNQAAMELGATVCTPQRPLCSQCPVESLCRARQRVEQEQLLASGSLSGSPDVEECAPNTGQCHLCLPPSEPWDQTLGVVNFPRKASRKPPREESSATCVLEQPGALGAQILLVQRPNSGLLAGLWEFPSVTWEPSEQLQRKALLQELQRWAGPLPATHLRHLGEVVHTFSHIKLTYQVYGLALEGQTPVTTVPPGARTLTQEEFHTAAVSTAMKKVFRVYQGQQPGTCMGSKRSQVSSPCSRKKPRMGQQVLDNFFRSHISTDAHSLNSAAQ [W447T] | -1.01
MRKPRAAVGSGHRKQAASQEGRQKHAKNNSQAKPSACDGLARQPEEVVLQASVSSYHLFRDVAEVTAFRGSLLSWYDQEKRDLPWRRRAEDEMDLDRRAYAVWVSEVMLQQTQVATVINYYTGWMQKWPTLQDLASASLEEVNQLWAGLGYYSRGRRLQEGARKVVEELGGHMPRTAETLQQLLPGVGRYTAGAIASIAFGQATGVVDGNVARVLCRVRAIGADPSSTLVSQQLWGLAQQLVDPARPGDFNQAAMELGATVCTPQRPLCSQCPVESLCRARQRVEQEQLLASGSLSGSPDVEECAPNTGQCHLCLPPSEPWDQTLGVVNFPRKASRKPPREESSATCVLEQPGALGAQILLVQRPNSGLLAGLWEFPSVTWEPSEQLQRKALLQELQRWAGPLPATHLRHLGEVVHTFSHIKLTYQVYGLALEGQTPVTTVPPGARVLTQEEFHTAAVSTAMKKVFRVYQGQQPGTCMGSKRSQVSSPCSRKKPRMGQQVLDNFFRSHISTDAHSLNSAAQ [W447V] | -0.846
